Assays:
Conditions in all cases: both partners purified
Tp0751_(24–237) [1] = target: T1, Tp0751_(24–237) (Treponema pallidum subsp. pallidum, …, UniProt O83732); assay: ELISA; epitope mapping: 33pM of antibody on plate-coated Tp0751_(24–237), Tp0751_(99–237) or Tp0751_(115–237)
T1 construct: The biotinylated, streptavidin-tetramerised form was used only to stain and sort B cells, not in BLI or ELISA; also called soluble Tp0751_(24–237); mature Tp0751 protein

Tp0751_(99–237) = target: T2, Tp0751_(99–237) (Treponema pallidum subsp. pallidum, …, UniProt O83732); assay: as above
T2 construct: Tp0751 of Treponema pallidum, amino acids 99-237 (N-terminal truncation; alpha helix cap 99-114 and lipocalin domain 115-237)

Tp0751_(115–237) = target: T3, Tp0751_(115–237) (Treponema pallidum subsp. pallidum, …, UniProt O83732); assay: as above
T3 construct: Tp0751 of Treponema pallidum, amino acids 115-237 (N-terminal truncation; lipocalin structural fold); also called Tp0751 lipocalin structural/functional domain

Tp0751_(24–237) [2] = target: T1, Tp0751_(24–237); assay: ELISA; titration: plates coated with 15 pmol/well Tp0751_(24–237) in 1xTBS pH 7.4; 0.2 pM-33 nM rabbit antibodies serially diluted in 4 % skim milk in TBS, 1 h at room temperature; anti-rabbit IgG-HRP
Tp0751_(24–237) [3] = target: T1, Tp0751_(24–237); assay: BLI; OctetRed, room temperature, shaking at 500 RPM; 40 μg/mL antibody loaded on Protein A capture biosensors; 0.1, 0.7 or 6 μM Tp0751_(24–237) in solution, 5 min association, 5 min dissociation in kinetics buffer

T1 sequence (O83732 24-237): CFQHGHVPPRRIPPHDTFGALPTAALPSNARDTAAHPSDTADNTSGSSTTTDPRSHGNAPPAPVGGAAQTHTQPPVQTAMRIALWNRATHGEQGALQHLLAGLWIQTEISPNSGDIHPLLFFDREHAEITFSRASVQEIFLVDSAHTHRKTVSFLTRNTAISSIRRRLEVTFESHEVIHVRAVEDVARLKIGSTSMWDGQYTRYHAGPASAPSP
T3 sequence (O83732 115-237): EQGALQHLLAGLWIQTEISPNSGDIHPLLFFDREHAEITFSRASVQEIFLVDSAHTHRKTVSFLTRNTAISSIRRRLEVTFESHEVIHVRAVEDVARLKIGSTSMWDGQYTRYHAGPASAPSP
T2 sequence (O83732 99-237): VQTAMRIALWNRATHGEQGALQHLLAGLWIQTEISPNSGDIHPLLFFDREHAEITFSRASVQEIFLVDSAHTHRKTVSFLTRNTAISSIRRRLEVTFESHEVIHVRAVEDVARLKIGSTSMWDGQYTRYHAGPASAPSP

| Binder | binding result (Tp0751_(24–237) [1]) | binding result (Tp0751_(99–237)) | binding result (Tp0751_(115–237)) | binding result (Tp0751_(24–237) [2]) | binding result (Tp0751_(24–237) [3]) |
| --- | --- | --- | --- | --- | --- |
| 2131F4 (antibody, V domains shown, made as rabbit IgG; source: produced and purified as rabbit IgG by Sino Biological) VH: QSVEESGGDLVKPEGSLTLTCTASEFSFNTNHYVCWVRQAPGKGLEWLACVAGGGSGATYYATWAKGRFTLSRTSSSTVTLEMTSLAPADTATYFCARVDSTDFNFDLWGPGTLVTVSS VL: DPVMTQTPSPVSAAVGGTVSISCQSSQIVYNDNWLSWYQQKPGQPPKRLIYGTSNSASGVPSRFKGSGCGTQFTLTISDVQCDDAATYYCQGGYLVGDVYVFGGGTEVVVK | binds | no binding (tested: 33pM of antibody) | no binding (tested: 33pM of antibody) |  |  |
| 2101A3 (antibody, V domains shown, made as rabbit IgG; source: produced and purified as rabbit IgG by Sino Biological) VH: QSLEESGGGLVKPGGTLTLTCKASGFDLSSYYYMCWVRQAPGKGLEWIACTYISSGSTWYASWAKGRFTVSKPSSTTVTLQMTSLTAADTATYFCAREVGSPEYGYYLDLWGPGTLVTVSS VL: DVVMTQTPASVEAAVGGTVTIKCQASQSISSWLSWYQQKPGQPPKLLIYQASKLASGVPSRFKGSGCGTEYTLTISDLECADGATYYCQTYYGSGSSNYHAFGGGTEVVVK |  | binds | no binding (tested: 33pM of antibody) | binds |  |
| 2092D3 (antibody, V domains shown, made as rabbit IgG; source: produced and purified as rabbit IgG by Sino Biological) VH: QSVEESGGRLVTPGTPLTLTCTVSGFSLSSYTMSWVRQAPGKGLEWIGVISGSDTLSYATWAKGRFTISKTSTTVDLKITSPTTADTATYFCARDGGYSDYDHAPNIWGPGTLVTVSL VL: DVVMTQTPASVEAAVGGTVTIKCQASQSIYNYLAWYQQKPGQPPKLLIYQASKVASGVPSRFKGRGSGTQFTLTISDLECADAATYYCQWSFYDSNYIGAFGGGTEVVVK |  | binds | no binding (tested: 33pM of antibody) | binds |  |
| 2092E3 (antibody, V domains shown, made as rabbit IgG; source: produced and purified as rabbit IgG by Sino Biological) VH: QSVEESGGRLVTPGTPLTLTCTVSGIDLSSYAMSWVRQAPGKGLEWIGVIGDMDIVSYATWAKGRFTISKTSTTVDLKITSPTTADTATYFCAGDGGYSDYDHAPNIWGPGTLVTVSL VL: DVVMTQTPASVEAAVGGTVTIKCHASESIYDYLAWYQQKPGQPPKLLISKASTLASGVPSGFKASGSGTLFTLTISDLECADAATYYCQWSFYDHYYVGAFGGGTEVVVK | binds | binds | no binding (tested: 33pM of antibody) |  |  |
| 2101D12 (antibody, V domains shown, made as rabbit IgG; source: produced and purified as rabbit IgG by Sino Biological) VH: QQLEESGGGLVKPGGTLTLTCKASGWDFSSSYWISWVRQAPGKGLEWIAYINTDSLKTYYATWAKGRFTVSKTSSTTVTLQVTSLTAADTATYFCADGAFWGPGTLVTVSS VL: DVVMTQTPASVSAAVGGTVTINCQASQSINSWLSWYQQKPGQPPKRLINDASTLESGVPSRFKGSGCGTQFTLTISDLECADAATYYCQSHYFSRSIDYYNAFGGGTEVVVK |  | binds | binds | binds |  |
| 2091E9 (antibody, V domains shown, made as rabbit IgG; source: produced and purified as rabbit IgG by Sino Biological) VH: QSVEESGGRLVTPGGSLTLTCTVSGFSLSSYVMTWVRQAPGKGLEWIGYIYIDGYTTWYASWVKGRFTISRTSTTVDLKMTSLSTEDTATYFCVRVGATIDFMMRRLDLWGQGTLVTVSS VL: DVVMTQTPSSVSAAVRGTVTIKCQASPSVYSDYLSWYQQKPGQRPKLLMYGTSTLASGVPSRFKGSGSGTQFTLTISDVQCDDAATYYCAGGFNSGADSFAFGGGTEVVVQ |  |  | binds |  | binds |
| 2101B3 (antibody, V domains shown, made as rabbit IgG; source: produced and purified as rabbit IgG by Sino Biological) VH: QSLEESGGDLVKPGASLTLTCTASGLDFSGYYYICWVRQAPGKGLEWIGCIWPGDGDTDYASWAKGRFTVSKTSSTTVDLKVTTLTAADTATYFCGRLLGSGSAYFNLWGPGTLVTVSS VL: AVVMTQTPSSVSEAVGGTVTIKCQASQTIGEALAWYQQKPGQPPKLLIYKASTVASGVPWRFKGSGCGSEYTLTISGVQCEDAATYYCQQGYSLTIIDNLFGGGTEVVVE | binds | binds | binds |  |  |

Reference: article PMC12431793, “Identification of antibodies induced by immunization with the syphilis vaccine candidate Tp0751” (Vaccine, 2025)
